Experimental data as given in patent publication US20240082402A1 (ELPIS BIOPHARMACEUTICALS, published 2024).

Key:
[1] = target: T1, full-length human CD19 on transfected K562 cells (human, UniProt P15391 20-556); experiment: cell-based or functional assay
T1 sequence (looked up): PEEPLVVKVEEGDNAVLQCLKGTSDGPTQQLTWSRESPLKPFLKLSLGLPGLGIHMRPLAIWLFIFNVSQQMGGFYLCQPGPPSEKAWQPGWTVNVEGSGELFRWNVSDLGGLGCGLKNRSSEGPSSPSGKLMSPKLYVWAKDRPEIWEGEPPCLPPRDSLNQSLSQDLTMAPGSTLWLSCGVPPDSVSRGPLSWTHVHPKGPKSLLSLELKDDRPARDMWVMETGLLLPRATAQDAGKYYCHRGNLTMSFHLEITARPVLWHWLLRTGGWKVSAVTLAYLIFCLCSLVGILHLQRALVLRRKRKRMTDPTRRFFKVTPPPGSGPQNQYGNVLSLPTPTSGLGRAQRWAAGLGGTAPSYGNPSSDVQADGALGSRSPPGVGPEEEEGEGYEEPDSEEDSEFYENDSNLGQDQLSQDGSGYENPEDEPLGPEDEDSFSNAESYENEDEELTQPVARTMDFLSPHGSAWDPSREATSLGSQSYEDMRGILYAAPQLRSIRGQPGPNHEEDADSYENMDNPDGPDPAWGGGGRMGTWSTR

[2] = target: full-length human CD22 on transfected K562 cells (human, UniProt P20273 20-847); experiment: cell-based or functional assay
[3] = target: human CD19 and human CD22 co-expressed on transfected K562 cells (human, UniProt P15391 20-556; P20273 20-847); experiment: cell-based or functional assay
[4] = target: T1, full-length human CD19 on transfected …; experiment: FACS, bispecific scFv at 200 nM on CD19 K562 cells, Alexa Fluor 647 anti-His detection, % positive cells
Description: (§1) Cells were spun down at 1300 rpm for 5 minutes at 4° C. to remove unbound antibodies. Cells were then washed once with 200 iaL of PBS per well. […] Samples were then spun down at 1300 rpm for 5 minutes at 4° C. and washed twice with 200uL of 1×PBS per well. The resultant samples were reconstituted in 200 uL of 1×PBS and read on Attune™ NxT Flow Cytometer.

[5] = target: T1, full-length human CD19 on transfected …; experiment: FACS, scFv at 200 nM on CD19 K562 cells, Alexa Fluor 647 anti-His detection, % positive cells
Description: as §1

B1: EPC-001-19 (bispecific CAR; G4S linker; co-expressed with EGFR), on transduced human T cells (other)
chain: EVQLVQSGAEVKKPGASVKVSCKASGYTFTSYGISWVRQAPGQGLEWMGWISAYNGNTNYAQKLQGRVTMTTDTSTSTAYMELRSLRSDDTAVYYCARDYGDPSGDDYWGQGTLVTVSSGGGGSGGGGSGGGGSEIVLTQSPATLSVSPGEGVTLSCRASQSVSSNLAWYQQRPGQAPRLLIYGASIKATDVPDRFSGGGSGTDFTLSISNLQSEDFAVYYCQQYHTWPPVTFGGGTKVEIKGGGGSQVQLQQWGAGLLKPSETLSLTCAVYGGSFSGYYWTWIRQPPGKGLEWIGEINHGGSSNYNPSLKSRVTISVDTSKKQFSLNLNSVTAADTAVYYCARGLGYRSGWYEVENAFDIWGQGTMVTVSSGGGGSGGGGSGGGGSQPVLTQPPSVSVAPGQTARITCGGNKIESRSVHWYQQKPGQAPVLVVYDDGARPSGIPERLSGSNSGDTATLTISRVEPGDEADYYCQVWDGSSVIFGGGTKLTVLESKYGPPCPPCPMFWVLVVVGGVLACYSLLVTVAFIIFWVKRGRKKLLYIFKQPFMRPVQTTQEEDGCSCRFPEEEEGGCELRVKFSRSADAPAYQQGQNQLYNELNLGRREEYDVLDKRRGRDPEMGGKPRRKNPQEGLYNELQKDKMAEAYSEIGMKGERRRGKGHDGLYQGLSTATKDTYDALHMQALPPR
IFNγ/Granzyme B Double Positive Cell % (CD4+) [1]: 10.9% | IFNγ/Granzyme B Double Positive Cell % (CD8+) [1]: 82% | IFNγ/Granzyme B Double Positive Cell % (CD4+) [2]: 0.92% | IFNγ/Granzyme B Double Positive Cell % (CD8+) [2]: 68.5% | IFNγ/Granzyme B Double Positive Cell % (CD4+) [3]: 3.01% | IFNγ/Granzyme B Double Positive Cell % (CD8+) [3]: 74.9%

B2: EPC-001-7 (bispecific scFv) (bispecific antibody)
scFv: QVQLQQWGAGLLKPSETLSLTCAVYGGSFSGYYWTWIRQPPGKGLEWIGEINHGGSSNYNPSLKSRVTISVDTSKKQFSLNLNSVTAADTAVYYCARGLGYRSGWYEVENAFDIWGQGTMVTVSSGGGGSGGGGSGGGGSQPVLTQPPSVSVAPGQTARITCGGNKIESRSVHWYQQKPGQAPVLVVYDDGARPSGIPERLSGSNSGDTATLTISRVEPGDEADYYCQVWDGSSVIFGGGTKLTVLGGGGSGGGGSGGGGSGGGGSEVQLVQSGGGVVQPGKSLRLSCAASGFTFSSYGMHWVRQAPGKGLEWVAVIWYDGSNKYYADSVKGRFTISRDNSKNTLYLQMNSLRAEDTAVYYCARDGWTGFDYWGQGTTVTVSSGGGGSGGGGSGGGGSEIVLTQSPATLSVSPGEGVTLSCRASQSVSSNLAWYQQRPGQAPRLLIYGASIKATDVPDRFSGGGSGTDFTLSISNLQSEDFAVYYCQQYHTWPPVTFGGGTKVEIKDYKDDDDKGGHHHHHH
notes: Expressed in E. coli periplasm (pET22b, Rosetta II), Ni-purified; detected with an anti-His antibody
binding result [4]: binds

B3: EPC-001-8 (bispecific scFv) (bispecific antibody)
scFv: EVQLVQSGGGVVQPGKSLRLSCAASGFTFSSYGMHWVRQAPGKGLEWVAVIWYDGSNKYYADSVKGRFTISRDNSKNTLYLQMNSLRAEDTAVYYCARDGWTGFDYWGQGTTVTVSSGGGGSGGGGSGGGGSEIVLTQSPATLSVSPGEGVTLSCRASQSVSSNLAWYQQRPGQAPRLLIYGASIKATDVPDRFSGGGSGTDFTLSISNLQSEDFAVYYCQQYHTWPPVTFGGGTKVEIKGSTSGSGKPGSGEGSTKGQVQLQQWGAGLLKPSETLSLTCAVYGGSFSGYYWTWIRQPPGKGLEWIGEINHGGSSNYNPSLKSRVTISVDTSKKQFSLNLNSVTAADTAVYYCARGLGYRSGWYEVENAFDIWGQGTMVTVSSGGGGSGGGGSGGGGSQPVLTQPPSVSVAPGQTARITCGGNKIESRSVHWYQQKPGQAPVLVVYDDGARPSGIPERLSGSNSGDTATLTISRVEPGDEADYYCQVWDGSSVIFGGGTKLTVLDYKDDDDKGGHHHHHH
notes: Expressed in E. coli periplasm, Ni-purified
binding result [4]: binds

B4: EPC-001-9 (bispecific scFv) (bispecific antibody)
scFv: QVQLQQWGAGLLKPSETLSLTCAVYGGSFSGYYWTWIRQPPGKGLEWIGEINHGGSSNYNPSLKSRVTISVDTSKKQFSLNLNSVTAADTAVYYCARGLGYRSGWYEVENAFDIWGQGTMVTVSSGGGGSGGGGSGGGGSQPVLTQPPSVSVAPGQTARITCGGNKIESRSVHWYQQKPGQAPVLVVYDDGARPSGIPERLSGSNSGDTATLTISRVEPGDEADYYCQVWDGSSVIFGGGTKLTVLGGGGSGGGGSGGGGSGGGGSEVQLVQSGAEVKKPGASVKVSCKASGYTFTSYGISWVRQAPGQGLEWMGWISAYNGNTNYAQKLQGRVTMTTDTSTSTAYMELRSLRSDDTAVYYCARDYGDPSGDDYWGQGTLVTVSSGGGGSGGGGSGGGGSEIVLTQSPATLSVSPGEGVTLSCRASQSVSSNLAWYQQRPGQAPRLLIYGASIKATDVPDRFSGGGSGTDFTLSISNLQSEDFAVYYCQQYHTWPPVTFGGGTKVEIKDYKDDDDKGGHHHHHH
notes: as for B3
binding result [4]: binds

B5: EPC-001-10 (bispecific scFv) (bispecific antibody)
scFv: EVQLVQSGAEVKKPGASVKVSCKASGYTFTSYGISWVRQAPGQGLEWMGWISAYNGNTNYAQKLQGRVTMTTDTSTSTAYMELRSLRSDDTAVYYCARDYGDPSGDDYWGQGTLVTVSSGGGGSGGGGSGGGGSEIVLTQSPATLSVSPGEGVTLSCRASQSVSSNLAWYQQRPGQAPRLLIYGASIKATDVPDRFSGGGSGTDFTLSISNLQSEDFAVYYCQQYHTWPPVTFGGGTKVEIKGSTSGSGKPGSGEGSTKGQVQLQQWGAGLLKPSETLSLTCAVYGGSFSGYYWTWIRQPPGKGLEWIGEINHGGSSNYNPSLKSRVTISVDTSKKQFSLNLNSVTAADTAVYYCARGLGYRSGWYEVENAFDIWGQGTMVTVSSGGGGSGGGGSGGGGSQPVLTQPPSVSVAPGQTARITCGGNKIESRSVHWYQQKPGQAPVLVVYDDGARPSGIPERLSGSNSGDTATLTISRVEPGDEADYYCQVWDGSSVIFGGGTKLTVLDYKDDDDKGGHHHHHH
notes: as for B3
binding result [4]: binds

B6: EPC-001-5 (bispecific antibody)
tandem scFv, anti-CD19 scFv - linker - anti-CD22 scFv - Flag - His: QVQLQQWGAGLLKPSETLSLTCAVYGGSFSGYYWTWIRQPPGKGLEWIGEINHGGSSNYNPSLKSRVTISVDTSKKQFSLNLNSVTAADTAVYYCARGLGYRSGWYEVENAFDIWGQGTMVTVSSGGGGSGGGGSGGGGSQPVLTQPPSVSVAPGQTARITCGGNKIESRSVHWYQQKPGQAPVLVVYDDGARPSGIPERLSGSNSGDTATLTISRVEPGDEADYYCQVWDGSSVIFGGGTKLTVLGGGGSGGGGSGGGGSGGGGSQVQLVQSGAEVKRPGASVKVSCKASGYTFTSYGISWVRQAPGQGLEWMGWISAYNGNTNYAQKLQGRVTMTTDTSTSTAYMELRSLRSDDTAVYYCARDPGIAVAGTVDYWGQGTLVTVSSGGGGSGGGGSGGGGSEIVMTQSPATLSVSPGEGVTLSCRASQSVSSNLAWYQQRPGQAPRLLIYGASIKATDVPDRFSGGGSGTDFTLSISNVQSEDFAVYYCQQYHTWTPVTFGGGTKVEIKDYKDDDDKGGHHHHHH
notes: also called EPC-001-5 (bispecific scFv)
binding result [4]: binds

B7: EPC-001-6 (bispecific antibody)
tandem scFv, anti-CD22 scFv - linker - anti-CD19 scFv - Flag - His: QVQLVQSGAEVKRPGASVKVSCKASGYTFTSYGISWVRQAPGQGLEWMGWISAYNGNTNYAQKLQGRVTMTTDTSTSTAYMELRSLRSDDTAVYYCARDPGIAVAGTVDYWGQGTLVTVSSGGGGSGGGGSGGGGSEIVMTQSPATLSVSPGEGVTLSCRASQSVSSNLAWYQQRPGQAPRLLIYGASIKATDVPDRFSGGGSGTDFTLSISNVQSEDFAVYYCQQYHTWTPVTFGGGTKVEIKGSTSGSGKPGSGEGSTKGQVQLQQWGAGLLKPSETLSLTCAVYGGSFSGYYWTWIRQPPGKGLEWIGEINHGGSSNYNPSLKSRVTISVDTSKKQFSLNLNSVTAADTAVYYCARGLGYRSGWYEVENAFDIWGQGTMVTVSSGGGGSGGGGSGGGGSQPVLTQPPSVSVAPGQTARITCGGNKIESRSVHWYQQKPGQAPVLVVYDDGARPSGIPERLSGSNSGDTATLTISRVEPGDEADYYCQVWDGSSVIFGGGTKLTVLDYKDDDDKGGHHHHHH
notes: also called EPC-001-6 (bispecific scFv)
binding result [4]: binds

B8: EPC-001-4 (scFv)
scFv (VH-linker-VL): EVQLVQSGAEVKKPGASVKVSCKASGYTFTSYGISWVRQAPGQGLEWMGWISAYNGNTNYAQKLQGRVTMTTDTSTSTAYMELRSLRSDDTAVYYCARDYGDPSGDDYWGQGTLVTVSSGGGGSGGGGSGGGGSEIVLTQSPATLSVSPGEGVTLSCRASQSVSSNLAWYQQRPGQAPRLLIYGASIKATDVPDRFSGGGSGTDFTLSISNLQSEDFAVYYCQQYHTWPPVTFGGGTKVEIK
notes: also called anti-CD22 monospecific scFv; parental anti-CD22 scFv
binding result [5]: no binding (tested: 200 nM)
